Source: patent publication US20200299415A1

Tests used:
[1] = biological target: cell surface receptors in membranes prepared from SH-SY5Y cells; test: radioligand saturation binding on SH-SY5Y cell membranes, filtration, nonlinear regression; upper end of printed range
[2] = biological target: cell surface receptors in membranes prepared from SH-SY5Y cells; test: radioligand saturation binding on SH-SY5Y cell membranes; upper end of printed range
[3] = biological target: cell surface receptors in membranes prepared from SH-SY5Y cells; test: radioligand saturation binding on SH-SY5Y cell membranes; lower end of range
[4] = biological target: cell surface receptors in membranes prepared from SH-SY5Y cells; test: radioligand saturation binding on SH-SY5Y cell membranes, filtration, nonlinear regression; lower end of range

Kd [1]: 0.149 nM | Bmax (fmol/mg protein) [2]: 104 | Bmax (fmol/mg protein) [3]: 88 | Kd [4]: 0.087 nM
Substance: [3H][Dmt1]DALDA (2',6'-Dmt-D-Arg-Phe-Lys-NH2, tritiated) (peptide)
